From patent US20220332804A1 (CSL INNOVATION, published 2022)
Residue numbers refer to the chain shown, from its start.

Experiments:
[1] = biological target: T1, Activated human C2 (huC2a) (human, UniProt P06681 244-752); test: SPR, mAb captured, neutral and acidic pH, 0 to 2 mM CaCl2
T1 construct: domain: C2a; also called human C2a
T1 sequence (looked up): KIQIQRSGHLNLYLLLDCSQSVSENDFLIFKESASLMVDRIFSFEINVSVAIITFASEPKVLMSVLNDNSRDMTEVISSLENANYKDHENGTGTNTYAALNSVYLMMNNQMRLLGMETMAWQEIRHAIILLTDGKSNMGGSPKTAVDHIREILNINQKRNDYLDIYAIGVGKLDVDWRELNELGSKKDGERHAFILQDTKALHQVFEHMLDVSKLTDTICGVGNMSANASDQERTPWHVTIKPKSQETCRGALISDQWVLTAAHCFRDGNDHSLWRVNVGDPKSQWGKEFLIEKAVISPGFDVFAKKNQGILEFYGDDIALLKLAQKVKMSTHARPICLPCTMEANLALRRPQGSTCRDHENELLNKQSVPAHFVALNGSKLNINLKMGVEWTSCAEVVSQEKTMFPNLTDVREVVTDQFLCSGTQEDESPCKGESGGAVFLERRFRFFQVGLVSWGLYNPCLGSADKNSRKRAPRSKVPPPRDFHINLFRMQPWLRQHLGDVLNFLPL
Procedure: Surface plasmon resonance (SPR, Biacore) was used for all binding affinity analyses. In brief, goat anti-human IgG was directly immobilised onto the carboxymethyl dextran surface of CM5 sensorchips to approximately 12,000 RU using standard NHS/EDC chemistry at pH 5. The immobilised antibody surface was pre-conditioned with ten injections of polyclonal human IgG (Privigen 60 s) prepared at 1 μg/mL. Ligands (anti-C2 mAbs) were captured at the beginning of each cycle as described below. An adjacent spot or flow cell in which only Polyclonal IgG was capture was used as a reference surface. The goat anti-human IgG Fc antibody surface was regenerate in 100 mM H3PO4, injected for 45 seconds at the end of each cycle. Experiments were performed at 37° C. and the flow rate of each experiment was kept constant at 30 μL/min.
The effect of calcium on antibody binding was determined with the addition of calcium chloride to the SPR running buffer. Calcium concentrations ranged from zero (i.e. no added calcium, control) to near physiological levels (0.02, 0.2 and 2 mM CaCl₂.2H₂O, MW 147.02 Da). […]
Purified human C2 zymogen was tested in physiological conditions (pH 7.3) at concentrations ranging from 1.9 to 500 nM and in acidic conditions (pH 6) at concentrations ranging from 3.9 to 2000 nM. […] Analyte association and dissociation were monitored for 180 and 600 seconds, respectively. […]

[2] = biological target: T2, human C2 K550A (human, UniProt P06681 21-752); test: SPR, KD relative to WT C2;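 note: biacore SPR at 37 °C, anti-C2 mAbs captured via immobilised goat anti-human IgG, C2 alanine or serine surface mutants as analytes, 1:1 model fitted, double-referenced sensograms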
T2 sequence: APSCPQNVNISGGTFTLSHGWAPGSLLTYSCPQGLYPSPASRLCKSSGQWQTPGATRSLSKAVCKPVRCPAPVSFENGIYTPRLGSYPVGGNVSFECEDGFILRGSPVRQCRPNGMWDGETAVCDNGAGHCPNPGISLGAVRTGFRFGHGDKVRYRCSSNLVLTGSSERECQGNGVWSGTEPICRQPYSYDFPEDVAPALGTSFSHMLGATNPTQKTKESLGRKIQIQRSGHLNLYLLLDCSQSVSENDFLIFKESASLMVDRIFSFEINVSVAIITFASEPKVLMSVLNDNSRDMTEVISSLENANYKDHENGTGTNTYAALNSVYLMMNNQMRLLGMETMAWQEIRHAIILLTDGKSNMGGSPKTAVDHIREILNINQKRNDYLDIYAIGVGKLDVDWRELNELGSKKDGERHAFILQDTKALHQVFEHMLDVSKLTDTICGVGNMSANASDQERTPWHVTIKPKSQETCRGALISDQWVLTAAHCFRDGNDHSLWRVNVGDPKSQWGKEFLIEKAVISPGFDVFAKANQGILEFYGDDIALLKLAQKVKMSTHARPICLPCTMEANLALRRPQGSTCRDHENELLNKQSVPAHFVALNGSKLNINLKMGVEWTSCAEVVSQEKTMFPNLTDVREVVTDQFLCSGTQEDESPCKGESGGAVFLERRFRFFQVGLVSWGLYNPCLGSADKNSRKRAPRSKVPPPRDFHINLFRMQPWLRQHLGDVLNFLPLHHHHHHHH

[3] = biological target: T3, human C2 L620A (human, UniProt P06681 21-752); test: SPR, KD relative to WT C2;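 note: biacore SPR at 37 °C, anti-C2 mAbs captured on anti-human IgG chips with alanine or serine point mutants of C2 as analyte, KD from 1:1 fit compared with wild-type C2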
T3 sequence: T2 sequence with A530K, L600A

[4] = biological target: T4, human C2 I272A (human, UniProt P06681 21-752); test: SPR, KD relative to WT C2;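 note: biacore SPR at 37 °C, anti-C2 mAbs captured on anti-human IgG chips with alanine or serine point mutants of C2 as analyte, KD from 1:1 fit compared with wild-type C2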
T4 sequence: T2 sequence with I252A, A530K

B1: RF16-226 (antibody)
heavy: not shown
light: SYELTQPPSVSVSPGQTARITCSGDALTSKYVAWYQQKSGLAPLLVIYEDTRRPSGIPAKFSGSSSGSVATLTISGAHGDDEADYYCYSTDASGHQRVFGGGTKLTVLSQPKAAPSVTLFPPSSEELQANKATLVCLISDFYPGAVTVAWKADGSPVKAGVETTKPSKQSNNKYAASSYLSLTPEQWKSHRSYSCQVTHEGSTVEKTVAPTECS
B1: no binding [1].

B2: RF16-226 (antibody, human IgG4 S228P, lambda)
heavy: not shown
light: B1 light
notes: pH-dependent anti-C2 antibody from a phage display library; also called WT
B2 showed a Fold diff [2] of 1 fold.

B3: RF16-242 (antibody, human IgG4 S228P, lambda, V domains shown)
VH: EVQLLQSGAEVKKPGESLKISCKGSGYSFTSYWIGWVRQMPGKGLEWMGIIYPGDSDTRYSPSFQGQVTISADKSISTAYLQWSSLKASDTAMYYCARRGHYGDYFDYWGQGTLVTVSS
VL: SYELTQPPSVSVSPGQTARITCSGDALPKKYAYWYHQKSGQAPVLVIYEDRRRPSEIPERFSGSSSGTMATLTITGAQVEDEGVYFCYSRDRAGNQRVFGGGTQLTVLG
notes: pH-dependent anti-C2 antibody from a phage display library
With B3 the Fold diff [3] was 1 fold and the Fold diff [4] was 1 fold.
